Measured values from the nanobody polyreactivity screen of Harvey et al. (2022).

Test: yeast display, Sf9 membrane polyspecificity reagent, FACS + sequencing; frameworks hold sequencing errors
In short: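 Galactose induction of a Saccharomyces cerevisiae BJ5465 synthetic nanobody display library ran 36–48 hours. The cells were then stained for 1 hour at 4 °C with 10% biotinylated, detergent-solubilized Sf9 membrane reagent, pulled down on streptavidin microbeads and FACS-sorted into low and high (top ~1%) gates on expression and reagent-binding fluorescence. Labels for polyreactivity follow the gate of origin.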

Sequence | polyreactivity (PSR sort gate)
QVQLVESGGGLVQAGGILRLSCAASGSILTDNAMGWYRQAPGKERELVAAITSSGNTNYADSVKGRFTISRDNAKNTVFLQMNSLKPEDTAVYYCARDLREWGQGTQVTVSS | low polyreactivity
QVQLVESGGGLVQAGGILRLSCAASGSIYGYNAMGSYRQAPGKERELVADITSSGSTYYADSVKGRFTISRDNAKNTVYLQMNSLKPEDTAVYYCAARYFVYYLEVDSWGQGTQVTVSS | low polyreactivity
QVQLVESGGGLVQAGGILRLSCAASGSTFDPNVMGWYRQAPGKERELVAAITWSGGSTSYADSVKGRFTISRDNAKNTVYLQMNSLKPEDTAVYYCAADWHSWRWGYYYWGQGTQVTVSS | low polyreactivity
QVQLVESGGGLVQAGGILRLSCAASGSTFGRYAMGWYRQAPGKVRELVAAISRRGGSTYYADSVKGRFTISRDNAKKTVYLQMYSLKRQDTAVYYCGADDVRTTGCHFDYWGQGTEVTVSS | high polyreactivity
QVQLVESGGGLVQAGGILRLSCAASGSTFPGYAMGWYRQAPGKERELVAAISGNGVITYYADSVKGRFTISRDNAKNTVYLQMNSLKPEDTAVYYCNADRLYWGGYYGLTYWGQGTQVTVSS | low polyreactivity
QVQLVESGGGLVQAGGILRLSCAASGSTFWPYAMGWYRQAPGKERELVATNRGGGTSTYYADSVKGRFTISRDNAKNTVYLQMNSLKPEDTAVYYCAARGFFTGSYPGYYYWGLGTQVTVSS | high polyreactivity
QVQLVESGGGLVQAGGILRLSCAASGSTFYYNTMGWYRQAPGKERELVAAISWSGGSTYYADSVKGRFTISRDNAKTTVYLQINSLKPEDTAVYYSNKLRHISRTLYGYWGQGTQVTVSS | high polyreactivity
QVQLVESGGGLVQAGGILRLSCAASGSTGTYMGSYRQAPGKEREMVAAIDNIGDNTYYADSVKGRFTISRDNAKNTVYLQMNSLKPEDTAVYYCPADFYVYYPWLFEYDYWGQGTQVTVSS | low polyreactivity
QVQLVESGGGLVQAGGILRLSCAASGSTLTSNDMGWYRQAPGKERELFADITWSGGDTYYADSVKGRFTISRDNAKYTVYLQMNSLKPEDTAVYYCAAEDPNYRPFAYGIEYDYWGQGTQVTVSS | low polyreactivity
QVQLVESGGGLVQAGGILRLSCAASGYILYGYAMGWYTQAPGKERELVAAISNDGSTYYADSVKGRFTISRDNAKNTVYLQMNSLKPEDTAVYYCNADAWRKVPHPGTGGRDYWGQGTQVTVSS | high polyreactivity
QVQLVESGGGLVQAGGILRLSCAATGSTFVNNVMGWYRQGPRKESDLFAAISRRATSTRYADSVKGRFTISRDHAKNTVYLQMNSLKPEDTEVYYCAATLYVGVTGYGYWGQGTQVTVSS | high polyreactivity
QVQLVESGGGLVQAGGILRLSCAPSGLILKYYAMGWYRQAPGKEREFVAAITRRGGITYYADSVKGRFTISRDNAKNTVYLQMNSLKPEDTAVYYCAADPKLGSLAYWRYSYPLYDYWGQGTQVTVSS | low polyreactivity
QVQLVESGGGLVQAGGILRLSCAPSGRTLPPNAMGWYRHAPGKERELFAGSTWSGGSTYYADSVKGRFTISRDNAKNTVYLPMNSLKPEVTAVYYCAASRSFPGYGLYYYWGQGTQVTVSS | low polyreactivity
QVQLVESGGGLVQAGGILRLSCASSGITFLTYTMGWYRQAPAKERELVAAISRSGGRTYYADSVKGRFTISRDNEKITVYLLMNSLKPEDTAVYYCDAVSATQDFDYWGQGTQETVSS | high polyreactivity
QVQLVESGGGLVQAGGILRLSCASSGRIFGVNAMGWYRQATGKERELVATISSGGSTYYADSVKGRFTISRDNAKNTVYLQLNSLKPEDTAVYYCAADTRRYYLARYRTDYWGQGTQVTVSS | high polyreactivity
QVQLVESGGGLVQAGGILRLSCASSGRTFKSYTMGWYRQAPGKERELVASISVSGGRTYYADSVKGRFTISRDNAKNTVYLQMNSLKPEDTAVYYCAAYYVHYRPVRGYDYWGQGTEVTVSS | high polyreactivity
QVQLVESGGGLVQAGGILRLSSAASGFIFKANAMGWSRQAPGKERELVAVITRRGGSTYYADSVKGSFTISRDNAKNTVYLQMNSLKREDTAVYYSAKEGSARYGPSDAYDYWGQGTQVTVSS | high polyreactivity
QVQLVESGGGLVQAGGILRLSSAASGFTFYLYTMGWYTPAPGKERELVAAISRSGDRTYYADSVKGRFTISRDNAKNTVYLQMNSLKPEDTAVYYCNAYTSYPNTMDYWGQGTQVTVSS | high polyreactivity
QVQLVESGGGLVQAGGILRLTSAGSGFNYYPYDMGWSRQAPGKERELVAAITQSGGSTYYADSVKGRFTISRDNAKITVYLQMISLKPEDTAVYSCNADTRGEYTYVSWYDYWGQGSQVTVSS | low polyreactivity
QVQLVESGGGLVQAGGILSLSCAASGFTFTVYDMGWYRQAPGKERELVAVITSGDGTYYADSVKGRFTISRDNAKNTVYLQMNSLKPEDTAVYYCNARRYSSFRYRFAYDYWGQGTQVTVTS | low polyreactivity
QVQLVESGGGLVQAGGNLRLSCAASGLIFGGYAMGWYRPAPGKERELVAAISRTGGRTYYADSVKVRFTISRDNAKNTVYLQMNSLKPEDTAVYYCATKRWWVRYDYWGQGTQVTVSS | high polyreactivity

Sequence | polyreactivity (PSR sort gate)
QVQLVESGGGLVQAGGRHPVSCAASGRTIAYNAKGLYRQATGKERELVASITSGGSTNYADSVKGRFTISRDYAKNTVYLQMNSLKQEHTADYYFNKDGKYHRVLFEYWGQGTQVTVSS | low polyreactivity
QVQLVESGGGLVQAGGRLLLSCAASGGTFYRNAMGWYRLAPGKERELVASISRTGGSTYYADSVKGRFTISRDNAKNTVYLQMNSMKPEDTAVYYCNALPYSRGRWRPLSAVDYWGQGTQVTVSS | high polyreactivity
QVQLVESGGGLVQAGGRLRFSCAASGSTFRPNAMGWYRQAPGNERELVAAITRPGGSTFYADSVKGRFTISRDYAKHTVYLQMNSLKPEDTAVYYCATRQRVDLAPLARYGYWGQGTQVTVSS | low polyreactivity
QVQLVESGGGLVQAGGRLRLICAASASNFAGYDKGWYRQAPGKERELVAAITSGGDTYYADSVKGRFTISRDNAKNTGYLQMNSLKPEDTAVYYCNKDYILARYGGGRDYWGQGTQVTVSS | low polyreactivity
QVQLVESGGGLVQAGGRLRLRCAACGFTFARYAMGRSSQAPGKERELLAAITWSAGSTYYADSVKGRFTISRDTGKNTVFLQMTRLKPEDTAVYYCNALVIARNIEMDYWGQGTQVTVSS | high polyreactivity
QVQLVESGGGLVQAGGRLRLSCAASAFTFYYYAMGWYRPAPGKERELVAAISWSGGSTYYADSVKGRFTFSRDNAKNTVYLQMNSLKPEDTAVYYCAADVYKQYGYYYWGQGTQVTVSS | high polyreactivity
QVQLVESGGGLVQAGGRLRLSCAASGFIFAYYAMGWYRQAPGKERELVAAITIDGSTNYADSVKGRFTISRDNAKNTVYLQMNSLKPEDTAVYYCAAADHPPVCYGYWGQGTQVTVSS | low polyreactivity
QVQLVESGGGLVQAGGRLRLSCAASGFIFIRNAMGWYRQAPGKERELVAAITRSGGRTYYADSVKGRFTISRDKAKNTVYLQMNSLKPEDTAVYYCAADADAAWGQGTQVTVSS | high polyreactivity
QVQLVESGGGLVQAGGRLRLSCAASGFIFRAYAMGWYRQAPGKERELVAAISRGGGTYYADSVKGRFTISRDNAKNTVYLQMNSLKPEDTAVYYCAVDLLRRGFTTVVTTYDYWGQGTQVTVSS | high polyreactivity
QVQLVESGGGLVQAGGRLRLSCAASGFIFSLYAMGWYRQAPGKERELVAGISESGGSTYYADSVKGRFTISRDNAKNTVYLQMNSLKPEDTAVYYCNADDTVYFIKAGDYWGQGTQVTVSS | high polyreactivity
QVQLVESGGGLVQAGGRLRLSCAASGFIFSYYTMGCYRQAPGKERELVAAIRSSGGSTYADSVKGRFTISRDNAKNTVYLQMNSLNPEDTAVYYGAGGYYWNEPLYWYGDFDYWGQGTQVTVSS | high polyreactivity
QVQLVESGGGLVQAGGRLRLSCAASGFTFKLYAMGWYRQAPGKERELVASISRSGGSTFYADSVKGRFTISRDTAKNTGYLQMNSLKPEDTAVYYCATGWYYSPYNYWGQGTQVTVSS | high polyreactivity
QVQLVESGGGLVQAGGRLRLSCAASGFTFYYNDMGWYRQAPGKERELVAAITWSGGSTYYADSVKGRFTISRDNAKNTVYLQMNSLKPEDTAVYYCNARYWVHGYRYYYWGQGTQVTVSS | high polyreactivity
QVQLVESGGGLVQAGGRLRLSCAASGGIFGSYAMGWYRQAPGKERELVADITQSGGRTRYADSVKGRFTISRDNAKNTVYLQMNSLKPEDTAVYYCNAQDVDSGDDYDYWGQGTQVTVSS | low polyreactivity
QVQLVESGGGLVQAGGRLRLSCAASGGIFSTYTRGWYRQEPGKERELVAAITTGNSTYYADSVKGRFTISRDNAKNTVYLQMNSLKPEDTAVYYCAADTIGYHYWYDYWGQGTQVTVSS | low polyreactivity
QVQLVESGGGLVQAGGRLRLSCAASGGTFVPYAMGWYRQAPGTERELVARISKRGGTTYYADSVKGRFTISRDTAKNTVYLQMNSVKPEDTAVYYCGAVLPARGYYWGEGTQVTVSS | high polyreactivity
QVQLVESGGGLVQAGGRLRLSCAASGGTFYTYFMGWYRQAPGKERELVAAISQSGGRTYYADSVKGRFTISRDNAKNTVYLQMISLKPEDTAVYYCAAPDESYSFWRLDGLDYWGQGTQVTVSS | high polyreactivity
QVQLVESGGGLVQAGGRLRLSCAASGIIFASNAMGWYCQAPGKERELVAAISRSGGRTYYADSVKGRFTISRDNAKNTVYLQMNSLKPEDTAVYYCAILARSGTLPYYYWGQGTQVNVSS | high polyreactivity
QVQLVESGGGLVQAGGRLRLSCAASGIIFAWYAMGWSRQAPGKERELVAAITSGGSTYYADSVKGRFTISRDNAKNTVYLQMNSLKPDDTAVYYCAASDASTGYLGRHYYWGPGTQVTVSS | high polyreactivity
QVQLVESGGGLVQAGGRLRLSCAASGIIFGGYSMGWYRQAPGKERELVADITWSGGSTTYADSVKGRFTISRDNAKNTVYLQMNSLKPEDTAVYYCAAEDYYIYREPYDYWGQGTQVTVSS | low polyreactivity
